The target in the experiment is T1, His-tagged USP7S (Ser18-containing isoform of USP7/HAUSP), purified recombinant (human, UniProt Q93009 1-1102, phosphoserine at 18 as purified from insect cells; not stated whether the phosphorylated or the dephosphorylated form stood in the pull-down of Figure 4D).
T1 construct: USP7 (HAUSP), human, the isoform that contains serine 18 (USP7S); also called pUSP7S; source: recombinant, purified from insect cells
Description: pull-down; equal amounts (0.42 pmol) of purified His-tagged USP7S and PPM1G incubated at room temperature for 30 min; USP7S pulled down with magnetic Ni-NTA agarose beads (magnetic beads as mock control); western blot with USP7S and PPM1G antibodies. The conditions noted are these: both partners purified.

T1 sequence (Q93009 whole entry, canonical isoform): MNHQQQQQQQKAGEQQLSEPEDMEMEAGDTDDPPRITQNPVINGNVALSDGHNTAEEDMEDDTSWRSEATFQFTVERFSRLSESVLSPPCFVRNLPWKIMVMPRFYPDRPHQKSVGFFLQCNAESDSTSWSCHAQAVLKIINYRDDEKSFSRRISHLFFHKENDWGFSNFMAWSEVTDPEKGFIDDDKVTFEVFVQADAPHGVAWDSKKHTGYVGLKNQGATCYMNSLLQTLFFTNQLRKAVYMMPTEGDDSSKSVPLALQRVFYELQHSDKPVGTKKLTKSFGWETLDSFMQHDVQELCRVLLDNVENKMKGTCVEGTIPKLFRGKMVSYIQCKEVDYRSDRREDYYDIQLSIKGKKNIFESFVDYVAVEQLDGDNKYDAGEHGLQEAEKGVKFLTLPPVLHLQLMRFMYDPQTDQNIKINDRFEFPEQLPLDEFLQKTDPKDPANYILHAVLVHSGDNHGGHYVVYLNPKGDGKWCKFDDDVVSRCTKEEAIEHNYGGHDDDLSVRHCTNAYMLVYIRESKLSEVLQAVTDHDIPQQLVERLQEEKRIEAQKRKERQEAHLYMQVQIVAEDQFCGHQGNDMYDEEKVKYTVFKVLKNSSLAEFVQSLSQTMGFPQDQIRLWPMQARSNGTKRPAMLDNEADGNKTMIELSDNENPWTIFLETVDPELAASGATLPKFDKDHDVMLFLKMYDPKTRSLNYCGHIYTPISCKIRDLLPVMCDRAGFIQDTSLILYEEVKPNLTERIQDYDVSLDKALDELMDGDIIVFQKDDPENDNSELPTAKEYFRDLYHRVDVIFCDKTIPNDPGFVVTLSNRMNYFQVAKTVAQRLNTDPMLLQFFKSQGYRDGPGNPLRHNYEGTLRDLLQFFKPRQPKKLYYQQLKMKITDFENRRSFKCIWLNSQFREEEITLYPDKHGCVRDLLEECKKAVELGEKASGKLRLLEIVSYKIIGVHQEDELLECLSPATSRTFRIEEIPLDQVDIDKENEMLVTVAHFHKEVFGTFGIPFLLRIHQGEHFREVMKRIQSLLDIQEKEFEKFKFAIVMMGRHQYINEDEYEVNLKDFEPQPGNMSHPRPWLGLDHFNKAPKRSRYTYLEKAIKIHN

B1: PPM1G, purified recombinant (enzyme, human, UniProt O15355 1-546, looked up)
chain: MGAYLSQPNTVKCSGDGVGAPRLPLPYGFSAMQGWRVSMEDAHNCIPELDSETAMFSVYDGHGGEEVALYCAKYLPDIIKDQKAYKEGKLQKALEDAFLAIDAKLTTEEVIKELAQIAGRPTEDEDEKEKVADEDDVDNEEAALLHEEATMTIEELLTRYGQNCHKGPPHSKSGGGTGEEPGSQGLNGEAGPEDSTRETPSQENGPTAKAYTGFSSNSERGTEAGQVGEPGIPTGEAGPSCSSASDKLPRVAKSKFFEDSEDESDEAEEEEEDSEECSEEEDGYSSEEAENEEDEDDTEEAEEDDEEEEEEMMVPGMEGKEEPGSDSGTTAVVALIRGKQLIVANAGDSRCVVSEAGKALDMSYDHKPEDEVELARIKNAGGKVTMDGRVNGGLNLSRAIGDHFYKRNKNLPPEEQMISALPDIKVLTLTDDHEFMVIACDGIWNVMSSQEVVDFIQSKISQRDENGELRLLSSIVEELLDQCLAPDTSGDGTGCDNMTCIIICFKPRNTAELQPESGKRKLEEVLSTEGAEENGNSDKKKKAKRD
notes: Serine/threonine protein phosphatase PPM1G (PP2Cγ), human; also called PP2Cγ; PPM1GGST; source: purified recombinant
Turning to B1, the binding result is “binds”.

Values taken from paper PMC3401373, “ATM-Dependent Downregulation of USP7/HAUSP by PPM1G Activates p53 Response to DNA Damage” (Molecular Cell, 2012).
